Where a chain is given by its changes, count along the chain named. In names and notes the source's numbering stands.
B1: AlrTt (Caldanaerobacter subterraneus subsp. tengcongensis MB4; Q360Y) (protein)
chain: MKFDGVRPTRVEVYLDAITHNFREIKKIVGKNVKIMAVIKGDAYGHGASYVAKFLEKEGVDYFGVATTEEALELREKGIKTPILIFGYTPPTQLRQIVKHDLTQTVYDIKYAKELEKESLKQNKRAKVHIKIDTGLGRIGYIDFDLAQKEILEMANMRGLILEGIYSHFAAASEDDRDYCKEQFDKFMNLISSLEKKRLKIPLKHIANAAAILNLNYSHLDMVRPGIILFGAYPSKRVERKVELRETLRFTTRVVHLKDVPAGFFIGYGKSFVTKRKSVIATIPVGYADGLDRRLSNNYKLLLKGKYVPIVGRVCMDQCMIDVTDVEGVEIGDEVVIIGTQNNETVSVESMADKIETIPYEVFSRISRRVPRVYFYDGIKIGEVNYLK
B2: AlrTt (Caldanaerobacter subterraneus subsp. tengcongensis MB4; Q360Y/S173D) (protein)
chain: B1 chain with S173D

Tests used:
AlrTt [1] = biological target: T1, AlrTt (Caldanaerobacter subterraneus, UniProt Q8RAK6); experiment: PLP content by absorption at […] nm; type: binding; conditions: active site, internal aldimine with Lys40 (covalent); in the crystal only the phosphate group of PLP was seen
T1 construct: gene alr1; full length, pET-28a, N- and C-terminal 6xHis tags, E. coli BL21(DE3); 388 residues; homodimer in crystal, monomer in size exclusion
T1 sequence (Q8RAK6 whole entry): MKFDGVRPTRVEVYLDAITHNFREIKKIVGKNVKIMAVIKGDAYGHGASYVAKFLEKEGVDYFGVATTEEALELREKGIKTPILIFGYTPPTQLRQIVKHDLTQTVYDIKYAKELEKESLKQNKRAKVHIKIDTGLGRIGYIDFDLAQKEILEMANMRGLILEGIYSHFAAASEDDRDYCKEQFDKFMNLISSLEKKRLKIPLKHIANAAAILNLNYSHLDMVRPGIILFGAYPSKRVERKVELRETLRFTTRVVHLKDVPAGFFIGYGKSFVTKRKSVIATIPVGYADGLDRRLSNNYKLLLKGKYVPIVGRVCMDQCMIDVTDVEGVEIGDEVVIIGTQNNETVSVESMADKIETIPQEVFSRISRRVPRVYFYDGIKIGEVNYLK

AlrTt [2] = biological target: T1, AlrTt; experiment: X-ray crystal structure, […] Å; type: binding; conditions: co-crystallized with L-Ala and PLP, pH 7.0; active site
[3] = biological target: Alanine racemase AlrTt (MBAlr1) from Thermoanaerobacter tengcongensis MB4, wild type (Thermoanaerobacter tengcongensis MB4) (UniProt Q8RAK6); experiment: crystal structure; AlrTt (10 mg/mL) incubated with L-Ala and PLP at 1:1.5:1.5 molar ratio, hanging drop, 22% PEG 4000, 0.1 M Bis-Tris pH 7.0, 289 K; 2.7 Å; homodimer in one asymmetric unit
purified protein [4] = substrate: C[C@@H](N)C(=O)O; experiment: purified protein; conditions: D-Ala to L-Ala; conditions of the kinetic assay not given
purified protein [5] = substrate: C[C@H](N)C(=O)O; experiment: purified protein; conditions: L-Ala to D-Ala; conditions of the kinetic assay not given

Molecule | Km (purified protein [4]) [mM] | kcat (purified protein [4]) [s⁻¹] | kcat/Km (purified protein [4]) [M⁻¹ s⁻¹] | Km (purified protein [5]) [mM] | kcat (purified protein [5]) [s⁻¹] | kcat/Km (purified protein [5]) [M⁻¹ s⁻¹] | other results
Cc1ncc(COP(=O)(O)O)c(C=O)c1O [PLP] |  |  |  |  |  |  | PLP content (AlrTt [1]): 1.44 ± 0.01 mol PLP per mol enzyme
C[C@H](N)C(=O)O [L-Ala] |  |  |  |  |  |  | X-ray crystal structure, 2.7 Å (AlrTt [2]): One L-Ala molecule is positioned in the active site pocket by hydrogen bonds
Alanine racemase AlrTt (MBAlr1) from Thermoanaerobacter tengcongensis MB4, wild type (from UniProt Q8RAK6 1-388) (enzyme) |  |  |  |  |  |  | stoichiometry N [3]: 2
B1 | 52.03 ± 5.41 | 251 | 4830 | 87.81 ± 8.72 | 431 | 4910 | 
B2 | 58.48 ± 7.29 | 133 | 2270 | 83.10 ± 8.78 | 246 | 2970 | 
